Patent US20250205375A1, “HER3 RADIOIMMUNOTHERAPY FOR THE TREATMENT OF SOLID CANCERS” (ACTINIUM PHARMACEUTICALS, INC., priority 2023, published 2025)

Experiments:
[1] = test system: OVCAR5 cell line xenograft; assay: Human OVCAR5 cell line xenograft ovarian cancer mouse model, tumor growth; assay type: in vivo; details: 10 mg/kg on day 1
Procedure: (§1) FIG. 17A is a graph showing the effects on tumor growth in a human OVCAR5 cell line xenograft ovarian cancer mouse model for ^225Ac-labeled HER3 antibody, in a single dose of 0.2 μCi or 0.4 μCi, versus standard of care Bevacizumab (10 mg/kg), ^225Ac-labeled non-specific IgG control (0.4 μCi), and naked (cold) HER3 mAb control (10 μg). All agents/controls were dosed on day 1.
as §1, with “17B” for “17A”, “^177Lu-labeled” for “^225Ac-labeled”, “200” for “0.2”, “400” for “0.4”, “(400” for “(0.4”

total HER3 = target: T1, total HER3 (Homo sapiens, UniProt P21860); details: 40 mg/kg; cited from earlier work
T1 construct: host or cells: tumour biopsies of patients

PARP = details: cited from earlier work
[2] = test system: triple-negative breast cancers (TNBC); details: TNBC patients, cited from earlier work
HER3-expressing tumors = details: 0.1 mg/kg and 0.3 mg/kg; cited from earlier work
HER3 = HER3 (Homo sapiens, UniProt P21860); details: cited from earlier work
surface HER3 = target: T2, surface HER3 (Homo sapiens, UniProt P21860); details: across all dose levels tested (100-2000 mg); cited from earlier work
T2 construct: host or cells: tumour biopsies of patients

human recombinant HER3 = human recombinant HER3 (human, UniProt P21860 20-643); assay: ELISA, plate coated with human recombinant HER3, serial dilutions 0-100 µg/ml, anti-human IgG F(ab')2-HRP secondary
Procedure: A secondary antibody (Goat Anti-human IgG F (ab′) 20-HRP) was added and incubated for 30 min on ice followed by color development using […] for 10 min.

[3] = test system: DU145 human prostate cancer line; assay: Fluorescence flow cytometry cell binding assay, DU145
Description: (§2) FIG. 14 is a graph showing the fluorescence flow cytometry cell binding assay results for naked (unlabeled) and DOTA-conjugated (specifically, p-SCN-Bn-DOTA-conjugated) anti-HER3 antibodies AT02 and AV-203, versus nonstained control, secondary antibody (SA) only control, and non-specific IgG primary antibody control, for three human prostate cancer lines, DU145, 22RV1 and LnCAP.

[4] = test system: LnCAP human prostate cancer line; assay: Fluorescence flow cytometry cell binding assay, LnCAP
Description: as §2

[5] = test system: ACHN human renal cancer cells xenograft; assay: ACHN human renal cell carcinoma xenograft in Balb/c nude mice, tumor growth; assay type: in vivo, mouse; details: 100 μg on day 1, intravenously
Procedure: In more detail, the experiment was performed as follows. Female Balb/c nude mice were subcutaneously injected with 5×10^6 ACHN human renal cancer cells (ATCC; CRL-1611). […] Drug treatments were administered orally for vehicle (PBS) and tivozanib or intravenously for unlabeled/unconjugated HER3 monoclonal antibody (HER3), HER3-ARC (Actinium-225 labeled HER3 antibody) and HER3-ADC (patritumab deruxtecan). Single agents or combinations were dosed as follows: vehicle (daily for 14 days), unlabeled/unconjugated HER3 antibody (100 μg on day 1), HER3-ADC (3 mg/kg on day 1 and 21), HER3-ARC (0.4 μCi on day 1 and 0.2 μCi on day 21), tivozanib (0.3 mg/kg daily for 14 days), tivozanib (0.3 mg/kg daily for 14 days) with HER3-ARC (0.4 μCi on day 16), and HER3-ARC (0.4 μCi on day 1) with tivozanib (0.3 mg/kg starting day 3, daily for 14 days). […] HER3-ARC was always administered in a total protein dose of 50 μg irrespective of the radiation dose. Tumor volumes were measured twice weekly by caliper and body weights were monitored. The mean tumor volume for each group was analyzed and graphed using GraphPad Prism software and statistical analysis is performed with Tukey's multiple comparisons test.

[6] = test system: 22RV1 human prostate cancer line; assay: Fluorescence flow cytometry cell binding assay, 22RV1
Description: as §2

Q: For “Bevacizumab: standard of care agent; VEGF inhibitor [reference compound]”, which “antitumor efficacy (tumor growth)” value [1] is on record?
A: minimal effect

Q: For “LJM716: HER3-targeting antibody from Novartis”, which “decrease in total HER3 levels, paired tumor biopsy samples” value (total HER3) is on record?
A: three out of five

Q: Which IC50 values (PARP) does the source give for `C[C@]1(c2nc3c(C(N)=O)cccc3[nH]2)CCCN1` [veliparib] here?
A: nanomolar range

Q: With `O=C(c1cc(Cc2n[nH]c(=O)c3ccccc23)ccc1F)N1CCN(C(=O)C2CC2)CC1` [olaparib] as the molecule, how does the disease stabilization rate ([2]; BRCA1/2-mutant vs non-mutant) read?
A: higher disease stabilization rate in BRCA1/2-mutant compared to non-mutant patients

Q: What about the sustained responses ([2]; either cohort) of the same molecule?
A: no sustained responses

Q: Which IC50 values (PARP) does the source give for `NC(=O)c1cccc2cn(-c3ccc([C@@H]4CCCNC4)cc3)nc12` [niraparib] here?
A: nanomolar range

Q: With lumretuzumab: HER3 antibody from Roche as the molecule, how does the “control of HER3-expressing tumors” value (HER3-expressing tumors) read?
A: ineffective

Q: And the “downregulation of HER3” value (HER3; 1-10 mg/kg)?
A: dose-dependent

Q: What about the HER3 target downregulation (HER3; lowest dose 0.3 mg/kg) of the same molecule?
A: did not result in HER3 target downregulation

Q: And the “downregulation of surface HER3 in serial tumor biopsies” value (surface HER3)?
A: 92 % of patients

Q: With `CNCc1ccc(-c2[nH]c3cc(F)cc4c3c2CCNC4=O)cc1` [rucaparib] as the molecule, how does the IC50 values (PARP) read?
A: nanomolar range

Q: Which IC50 values (PARP) does the source give for `Cn1ncnc1[C@H]1c2n[nH]c(=O)c3cc(F)cc(c23)N[C@@H]1c1ccc(F)cc1` [talazoparib] here?
A: picomolar range

B1: 225Ac-HER3-ARC (Actinium-225 labeled, p-SCN-Bn-DOTA-conjugated anti-HER3 IgG monoclonal antibody, heavy chain SEQ ID NO:77 and light chain SEQ ID NO:78) (antibody, V domains shown)
VH: QVQLVESGGGLVKPGGSLRLSCAASGFTFSDYAMSWIRQAPGKGLEWVSTISDGGTYTYYPDSVKGRFTISRDNAKNSLYLQMNSLRAEDTAVYYCAREWGDYDGFDYWGQGTLVTVSS
VL: DIQMTQSPSSLSASVGDRVTITCRASQEISGYLSWYQQKPGKAPKRLIYAASTLDSGVPSRFSGSGSGTEFTLTISSLQPEDFATYYCLQYDSYPYTFGQGTKLEIKR
modifications: conjugated to the chelator DOTA using p-SCN-Bn-DOTA and radiolabeled via chelation with Actinium-225; sites of conjugation not stated
notes: Antibody radioconjugate of m1; also called Ac225 labeled DOTA-conjugated anti-HER3 monoclonal antibody
Q: For B1, which EC50 (human recombinant HER3) is on record?
A: 1.7 ng/mL

B2: AV-203: anti-HER3 monoclonal antibody from AVEO Oncology; heavy chain variable region SEQ ID NO:21, light chain variable region SEQ ID NO:22 (antibody, V domains shown)
VH: B1 VH
VL: DIQMTQSPSSLSASVGDRVTITCRASQEISGYLSWYQQKPGKAPKRLIYAASTLDSGVPSRFSGSGSGTEFTLTISSLQPEDFATYYCLQYDSYPYTFGQGTKLEIK
Q: What does the source list for B2?
A: cell binding [3]: specifically and comparably bound; cell binding [4]: specifically and comparably bound; tumor growth (mean tumor volume) [5]: no effect on tumor growth; cell binding [6]: specifically and comparably bound

B3: anti-HER3 IgG monoclonal antibody consisting of heavy chain SEQ ID NO:77 and light chain SEQ ID NO:78 (unmodified) (antibody, V domains shown)
VH: B1 VH
VL: B1 VL
notes: IgG; Detected with an anti-human IgG secondary antibody; also called unmodified anti-HER3 mAb; unmodified anti-HER3 antibody
Q: Which EC50 (human recombinant HER3) does the source give for B3 here?
A: 2.2 ng/mL

B4: DOTA conjugated AV-203 (conjugate)
VH: B1 VH
VL: B2 VL
Q: Which cell binding [3] does the source give for B4 here?
A: specifically and comparably bound

Q: And the cell binding [4]?
A: specifically and comparably bound

Q: And the cell binding [6]?
A: specifically and comparably bound
